Results published in patent US20110275122A1 (Amgen, published 2011).
Positions count from the first letter of the chain named.

T1: human mpl receptor (human, UniProt P40238 26-635)
T1 sequence (looked up): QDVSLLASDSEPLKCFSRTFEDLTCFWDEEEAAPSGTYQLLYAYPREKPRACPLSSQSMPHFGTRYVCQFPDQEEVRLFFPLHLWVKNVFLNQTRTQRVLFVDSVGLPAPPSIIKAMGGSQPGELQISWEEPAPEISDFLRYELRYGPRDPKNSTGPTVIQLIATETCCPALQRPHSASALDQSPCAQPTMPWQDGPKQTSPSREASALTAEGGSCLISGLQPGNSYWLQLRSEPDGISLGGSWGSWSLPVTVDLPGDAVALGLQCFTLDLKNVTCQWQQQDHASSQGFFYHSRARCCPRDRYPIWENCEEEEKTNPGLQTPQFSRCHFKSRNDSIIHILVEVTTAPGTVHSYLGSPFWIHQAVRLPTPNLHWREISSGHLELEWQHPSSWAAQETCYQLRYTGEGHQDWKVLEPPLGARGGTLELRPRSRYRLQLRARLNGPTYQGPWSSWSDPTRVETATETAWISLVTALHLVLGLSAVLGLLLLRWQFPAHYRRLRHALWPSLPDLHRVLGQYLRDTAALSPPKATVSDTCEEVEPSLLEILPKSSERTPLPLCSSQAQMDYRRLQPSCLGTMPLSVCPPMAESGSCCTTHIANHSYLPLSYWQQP

T2: c-mpl receptor (Homo sapiens (Human), UniProt P40238 26-491, The MPL used for panning was biotinylated; the biotin site is not stated and is not carried by the letters.)
T2 construct: also called TPO receptor
T2 sequence: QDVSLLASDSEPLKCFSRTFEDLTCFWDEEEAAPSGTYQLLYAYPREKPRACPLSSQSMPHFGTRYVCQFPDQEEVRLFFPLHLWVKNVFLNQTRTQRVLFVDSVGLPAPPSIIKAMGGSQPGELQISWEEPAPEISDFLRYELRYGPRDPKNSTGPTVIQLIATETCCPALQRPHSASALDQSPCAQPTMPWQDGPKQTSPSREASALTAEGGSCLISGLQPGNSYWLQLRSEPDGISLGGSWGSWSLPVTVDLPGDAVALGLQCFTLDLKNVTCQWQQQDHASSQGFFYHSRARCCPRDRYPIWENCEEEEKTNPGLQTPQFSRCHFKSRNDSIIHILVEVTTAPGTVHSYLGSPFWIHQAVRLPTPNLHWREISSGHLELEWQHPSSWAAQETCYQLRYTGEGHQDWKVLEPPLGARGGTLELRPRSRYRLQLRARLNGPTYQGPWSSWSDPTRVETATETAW

B1: Fc-Loop (Asym) (SEQ ID NO: 9) (Fc fusion)
chain: MDKTHTCPPCPAPELLGGPSVFLFPPKPKDTLMISRTPEVTCVVVDVSHEDPEVKFNWYVDGVEVHNAKTKPREEQYNSTYRVVSVLTVLHQDWLNGKEYKCKVSNKALPAPIEKTISKAKGQPREPQVYTLPPSRDELGGGGQGCSSGGPTLREWQQCRRMQHSGGTKNQVSLTCLVKGFYPSDIAVEWESNGQPENNYKTTPPVLDSDGSFFLYSKLTVDKSRWQQGNVFSCSVMHEALHNHYTQKSLSLSPGK
B2: Fc-Loop (Asym) (SEQ ID NO: 243) (Fc fusion)
chain: B1 chain with R160V
B3: Fc-Loop (Sym) (SEQ ID NO: 9) (Fc fusion)
chain: MDKTHTCPPCPAPELLGGPSVFLFPPKPKDTLMISRTPEVTCVVVDVSHEDPEVKFNWYVDGVEVHNAKTKPREEQYNSTYRVVSVLTVLHQDWLNGKEYKCKVSNKALPAPIEKTISKAKGQPREPQVYTLPPSRDELGGQGCSSGGPTLREWQQCRRMQHSGGTKNQVSLTCLVKGFYPSDIAVEWESNGQPENNYKTTPPVLDSDGSFFLYSKLTVDKSRWQQGNVFSCSVMHEALHNHYTQKSLSLSPGK
B4: Fc-Loop (Sym) (SEQ ID NO: 243) (Fc fusion)
chain: B3 chain with R158V
B5: SEQ ID NO: 326 (peptide)
peptide: IEGNYWFWQQVGQENTLSREWIQTLGQKYWYRPPSICAQIEGWSRHQHYSAMSGHS
B6: Fc-Loop (Sym)(SEQ ID NO: 244) (Fc fusion)
chain: B3 chain with M160A

Target: T1, human mpl receptor
Assay: cell-based or functional assay

Binder | In vitro EC50
B1 | 0.0127 nM
B2 | 0.0057 nM
B3 | 0.0137 nM
B4 | 0.0099 nM

Target: T2, c-mpl receptor
Assay: phage-ELISA

Binder | Relative activity
IEGPTFKQWQRWLKYHS [SEQ ID NO: 325] | 13.5
IEGPTFKQWQRLRKNHS [SEQ ID NO: 329] | 12.1
IEGLLSQLWQAARA [SEQ ID NO: 330] | 7.11
IEGPTFKQWQLMGFPHS [SEQ ID NO: 320] | 17.8
IEGPTLHEWLLYRRAHS [SEQ ID NO: 335] | 73.7
IEGPSLPEWLHVWRHHS [SEQ ID NO: 331] | 117
IEGPTLHEWLAQRREHS [SEQ ID NO: 334] | 75.9
IEGPTFKQWQKLRLGHS [SEQ ID NO: 319] | 17.9
IEGPTLHEWLAERRKHS [SEQ ID NO: 332] | 88.4
IEGPTFKQWQAMRKNHS [SEQ ID NO: 322] | 16.4
IEGWIWRQWLMQTLWHS [SEQ ID NO: 321] | 16.4
IEGPTFKQWQALRKRHS [SEQ ID NO: 318] | 21.6
IEGPTFKQWQKWRLSHS [SEQ ID NO: 323] | 14.7
IEGWQEGRQSAARA [SEQ ID NO: 324] | 13.8
IEGPTLHEWLRQRRQHS [SEQ ID NO: 336] | 64.5
IEGPTLHEWLALLRSHS [SEQ ID NO: 333] | 80.7
IEGPTFKQWQLWRLQHS [SEQ ID NO: 327] | 12.6
B5 | 13.2
IEVWQSHWYQAARALESTSSRLLPMRPPPSICAQIEGPTLPQRMAARA [SEQ ID NO: 316] | 24.9

Target: T1, human mpl receptor
Assay: cell-based or functional assay
Remark: another data set of the same source

Binder | EC50 on 32Dc123/Mpl
B1 | 0.013 nM
B2 | 0.006 nM
B3 | 0.015 nM
B4 | 0.01 nM
B6 | 0.012 nM
